According to patent US5731411, “Promotion of homologous DNA pairing by RecA-derived peptides” (The United States of America as represented by the …):

What was measured:
[1] = target: T1, WT-14 (RecA residues 196-209 peptide) (Escherichia coli, UniProt P0A7G8); assay: filter; peptide up to 100 uM, pH 8.3; no joint molecules; conditions: protein: synthetic; tags: synthetic peptide, HPLC purified; label: 5' 32P
T1 chain: RMKIGVMFGNPETT

[2] = target: T2, FECO (RecA residues 193-212 peptide) (Escherichia coli, UniProt P0A7G8 SEQ:1-20); assay: filter; 10 mM MgCl2, pH 8.3, room temp; less tight without Mg; unstacks ssDNA (permanganate); joint molecules with homologous pBluescript but not pUC19 (Example 5); conditions: protein: synthetic; tags: synthetic peptide, HPLC purified; label: 5' 32P
T2 chain: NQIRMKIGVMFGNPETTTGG

[3] = target: T2, FECO (RecA residues 193-212 peptide); assay: CD, random coil to beta structure, pH 7.5; conditions: protein: synthetic; tags: synthetic peptide, HPLC purified

Binder | binding result [1] | binding result [2] | binding result [3]
BS-S1 ssDNA (ssDNA) DNA: GGCCGCTCTAGAACTAGTGGATCCCCCGGGCTGCAGGAATTCGATATCAAGCT | no binding | binds | 
57-mer ssDNA (ssDNA) DNA: CTGTCTACTCTCGAGGTTAACCCGTGCGAATTCTACGATTGGTGCGGCCGGTATATC |  |  | binds
